Assay results as given in patent US20130217145A1 (published 2013).

Assays:
Assay in all cases: FCS competition against 2 nM Alexa488-PIVKAII (13-27) premixed with 10 nM mAb 3C10
[1] = target: T1, Gla domain Protein C sequence 14 peptide
T1 construct: Homologous series peptide; also called PIVKAII Gla domain (13-27) analog, Protein C
T1 peptide: LERECIEEICDFEEA
Protocol: (§1) FCS measurements were performed on each sample after overnight incubation.

[2] = target: T2, Gla domain Protein Z sequence 16 peptide
T2 construct: Homologous series peptide; also called PIVKAII Gla domain (13-27) analog, Protein Z
T2 peptide: LEKECYEEICVYEEA
Protocol: as §1

[3] = target: T3, Gla domain Factor IX sequence 11 peptide
T3 construct: Homologous series peptide; also called PIVKAII Gla domain (13-27) analog, Factor IX
T3 peptide: LERECMEEKCSFEEA
Protocol: as §1

[4] = target: T4, Gla domain Factor VII sequence 13 peptide
T4 construct: Homologous series peptide; also called PIVKAII Gla domain (13-27) analog, Factor VII
T4 peptide: LERECKEEQCSFEEA
Protocol: as §1

[5] = target: T5, Gla domain Protein S sequence 15 peptide
T5 construct: Homologous series peptide; also called PIVKAII Gla domain (13-27) analog, Protein S
T5 peptide: LERECIEELCNKEEA
Protocol: as §1

[6] = target: T6, Gla domain Factor X sequence 12 peptide
T6 construct: Homologous series peptide; also called PIVKAII Gla domain (13-27) analog, Factor X
T6 peptide: LERECMEETCSYEEA
Protocol: as §1

Measured: binding result

B1: Anti-PIVKA-II monoclonal antibody 3C10 (antibody, V domains shown)
VH: EVQLVESGGDLVKPGGSLKLSCAASGFTFSSYGMSWVRQTPDKRLEWVATISRGGSSTYYPDSVKGRFTISRDNAKNNLYLQMSSLKSEDTAMYYCASLNYGNFFDYWGQGTTLTVSS
VL: DVVMTQTPLSLPVSLGDQASISCRSSQSLVHSNGNTYLHWYLQKPGQSPKLLIYKVSNRFSGVPDRFSGSGSGTDFTLKISRVEAEDLGVYFCSQNRHVPPTFGGGTKLEIKR
notes: Mouse hybridoma antibody from a GANP transgenic C57BL/6 mouse; For the Kd measurement the antibody carried Black Hole Quencher (I.R. 2.3); also called mAb 3C10; clone 3C10
no binding: all assays above
